Assay results: the supplement of paper PMC10126150
± gives the standard deviation of the averaged measurements.

Tested on: ATP
Experiment: switch fluorescence ratio, 500 uM ATP over buffer (Cy3 cluster intensity, sum of 5 cycles each) (fold (ratio)); higher = stronger signal-on switching upon ATP binding; sequences stand for … in TCGTCGGCAGCGTCAGATGTGTATAAGAGACAGTTTTTTTTTTTTTTTTTTTTTTTTT…TC
Conditions: aptamer strand: ATP DNA aptamer (quencher-CACCTGGGGGAGTATTGCGGAGGAAGG + anchor), 100 nM annealed; ATP concentration: 500 uM
Summary of the method: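 Switching-strand clusters labelled with Cy3 on a modified Illumina MiSeq flow-cell were annealed to 100 nM quencher-labelled ATP aptamer, imaged in selection buffer, and re-imaged after 15 min with 500 uM ATP at 22 °C. This was done over five cycles with NaOH stripping and re-annealing in between. The fluorescence ratio is summed target-cycle over summed buffer-cycle Cy3 intensity per cluster, averaged per switch-domain sequence, excluding clusters outside 100-1000 RFU.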
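Note: ATP exposure 15 min at 22 °C before imaging.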

Sequence	switch fluorescence ratio
GGATGCTTGG	1.05 ± 0.021
ATTTCCATGT	0.978 ± 0.011
TTTGGATCTG	1.034 ± 0.0094
CGGAGCGGCG	1.042 ± 0.0095
TTCGGTTTGC	1.02 ± 0.066
AATAAATGCT	0.99 ± 0.036
CATGATGTTG	0.975 ± 0.026
GAATGGCTAG	1.0109 ± 0.00049
TTAATAAGCT	0.978 ± 0.022
GGGGTGGCAA	1.008 ± 0.0037
TATAGGTCAG	0.985 ± 0.011
TATTTAGGTG	1.11 ± 0.018
ACTCAGGGGG	1.27 ± 0.32
TGCTATAGAG	1.048 ± 0.0012
TTCTTATTGT	0.975 ± 0.019
GGTCGTTTGC	1.05 ± 0.074
AAATTTTTTT	0.996 ± 0.054
ACGAGAAGGG	1.02 ± 0.043
GGGGGTAGTA	1.01 ± 0.044
TACGGGAGCT	1.05 ± 0.026
ATTCGCAGCA	1.22 ± 0.056
ATGTAACTTT	1.16 ± 0.27
ATTTTAGATG	1 ± 0.025
GATATTTAAG	0.988 ± 0.042
AAGTTACTGT	1.126 ± 0.006
GTTTTCTCAT	0.989 ± 0.029

Sequence	switch fluorescence ratio
GGGTATTGGG	0.99 ± 0.021
GGGGGTGGAC	1.01 ± 0.052
CACTGTCGAT	1.016 ± 0.0097
GCGAATGATG	0.966 ± 0.024
AAAAGTGAAA	1.14 ± 0.2
GTCGGGATAT	1.03 ± 0.018
CGGGGGTAG	0.9982 ± 0.0021
TTTAGCACAG	1.06 ± 0.017
CTAGGTCGGC	0.994 ± 0.042
ACGCTAGCCT	1.18 ± 0.032
AAAATGGTGC	1.06 ± 0.065
CTTATAGACT	1.01 ± 0.011
ATATTGCTGG	0.9724 ± 0.0085
TTTTGTAACG	1 ± 0.034
TGATGGGCGT	0.9801 ± 0.0016
GTTAGTTAGG	0.976 ± 0.025
ATAGTTTGAT	1.01 ± 0.022
GGGGTTCATC	0.995 ± 0.022
CGAGTCGACG	0.99 ± 0.07
CCTCATCGAG	1.07 ± 0.024
CATCTCAGTG	1.03 ± 0.015
GCGGGGCGGG	1.02 ± 0.017
TGGTCGCAGG	0.9899 ± 0.005
GGGGTCTTTT	0.999 ± 0.033
AGGAATAGCG	1.021 ± 0.0061
GCGCTTGAGG	1.006 ± 0.0083

Sequence	switch fluorescence ratio
GGGGATTTGT	0.994 ± 0.034
GATGGACATA	1.031 ± 0.0015
TGTGAGAGTT	0.9826 ± 0.0098
TGGGGGCATA	1.09 ± 0.1
TTTTGTAAGA	1.03 ± 0.013
ATCGTTTTGA	0.989 ± 0.013
GACACATCAA	1.048 ± 0.008
CCGACGGAGG	1.99 ± 1.2
AAATGGTCGA	0.974 ± 0.01
ATAAACGTTA	1.1 ± 0.018
AGTGATAAGT	0.969 ± 0.015
TCGTTATTGG	0.9844 ± 0.0023
TAACGCCATC	1.51 ± 0.035
AAAGGGTTCT	0.994 ± 0.04
TTTTTTGCGC	1.19 ± 0.29
GGCTGGGCTT	0.99 ± 0.04
CAATCTGGGA	0.978 ± 0.019
GATAAGAGCC	1.008 ± 0.0024
CGAAGATCGG	1 ± 0.023
TGGGGTTGCA	0.99 ± 0.015
TGTGGGGCAA	1.05 ± 0.019
TTTAGCTTAT	0.9798 ± 0.0056
GACTGTACTA	1.48 ± 0.075
ATATGCGGCG	1.02 ± 0.073
TTCACATTTT	0.9961 ± 0.0026
CTGGGGATTG	1.01 ± 0.014

Sequence	switch fluorescence ratio
TTTTGGATAT	1.28 ± 0.42
ACGGGAGACC	1.02 ± 0.018
GCCTTATTTT	1 ± 0.027
TCGGTTGAGG	0.983 ± 0.025
GGATTGTCTT	1 ± 0.0014
GGGGCTAGAG	1.4 ± 0.77
AGGGCATTCA	1.02 ± 0.046
TTCGTTTTGG	1.01 ± 0.038
GGGGAAAGAA	1.02 ± 0.064
GGGGTATGAC	1.02 ± 0.015
GTAGGAAGTG	0.9935 ± 0.0091
CACAATCGGG	1.005 ± 0.0088
TAGTCATTGA	1.012 ± 0.0021
TTAGGGTGAA	1.02 ± 0.032
TACAATGTTT	1.02 ± 0.059
CAGATATGGC	1.05 ± 0.034
GAGGTTTCAC	0.965 ± 0.023
ACGGAGGTGG	0.992 ± 0.033
GGGGGGGATT	1.01 ± 0.025
GGTGCTGAAG	1.01 ± 0.021
CATTAGGGCT	0.978 ± 0.015
CGGGGATGTT	0.999 ± 0.035
AAACGGGGGT	0.991 ± 0.0073
GGGATGACCT	1.1 ± 0.044
ACAGGTTGGA	1.03 ± 0.023
GTTTCAATGC	1.31 ± 0.1

Sequence	switch fluorescence ratio
ATTTGATAGT	1.007 ± 0.0052
CGGGGTTCGG	0.996 ± 0.023
TTGGGGTGGT	0.993 ± 0.032
CATGTCCAGG	1.46 ± 0.059
TACAACGTGG	0.991 ± 0.012
ATGTGGGTGT	1.02 ± 0.013
GGGGCAGGCG	1.07 ± 0.35
TGCTGGCCAC	1.01 ± 0.013
GTAGGGGGAC	1.05 ± 0.099
TCAACTATTT	0.972 ± 0.031
GGGAGCTGCG	1 ± 0.018
GTGCCGGGTT	1.03 ± 0.066
AATAAGAATA	1 ± 0.037
TCTAACTTAG	1.043 ± 0.0025
GCTATAGGGG	1.02 ± 0.02
CGGATGGCGA	1.03 ± 0.021
CAATTAGCAT	1.03 ± 0.017
TGTAGTTTAG	1.01 ± 0.032
TTCTGTGGCG	1 ± 0.069
CGTTATGGGC	0.979 ± 0.022
ATTAATTTTC	0.997 ± 0.039
GAGAGTACGT	0.964 ± 0.013
GTGTGGCACT	0.9989 ± 0.0056
ATTTTAATGG	0.9907 ± 0.0036
AATGCGCCAG	1.03 ± 0.025
TTTGGGTCAA	1.012 ± 0.0074

Sequence	switch fluorescence ratio
AGACCTTGGT	0.963 ± 0.03
GTAGTAGGGG	0.999 ± 0.015
ATAGTCCCAC	0.9901 ± 0.009
CTCTCTAGCA	1.4 ± 0.015
TATGGATTGT	1.01 ± 0.04
GTAAATTATG	0.986 ± 0.018
TTAAAACTAT	1.015 ± 0.0089
GCAATTTCGC	1.42 ± 0.58
GGTTGCGCTT	1.29 ± 0.39
AATATCGCGG	1.0264 ± 0.001
CACAAACCAG	1.34 ± 0.37
GAGTTTATGT	1.01 ± 0.022
CATGGTATTA	1.01 ± 0.044
CTACGATCGA	1.02 ± 0.015
GTTATACGGT	0.997 ± 0.057
GAAATCTTTT	1.07 ± 0.17
CCAAGCATCG	1.197 ± 0.0062
GGTAGTTAAA	0.999 ± 0.024
ATTGTAGTCT	1.04 ± 0.06
AGGTAAAAAG	1.02 ± 0.017
ATCATTCCTC	1.573 ± 0.011
GATAGGTTGT	1.02 ± 0.035
TGTTAATGGG	0.997 ± 0.016
